In patent US20130209454A1:

Legend:
Test in all cases: cell-based or functional assay
[1] = biological target: Env of HIV-1 strain Ce0393_C3 (HIV-1)
[2] = biological target: Env of HIV-1 strain 3365.v2.c2 (HIV-1)
[3] = biological target: HIV-1 Env of strain BF1266.431a (HIV-1)
[4] = biological target: HIV-1 Env of strain 3301.v1.c24 (HIV-1)
[5] = biological target: HIV-1 Env of strain Q259.d2.17 (HIV-1)
[6] = biological target: Env of HIV-1 strain Q769.d22 (HIV-1)
[7] = biological target: HIV-1 Env of strain CNE30 (HIV-1)
[8] = biological target: Env of HIV-1 strain C4118.c09 (HIV-1)
[9] = biological target: Env of HIV-1 strain Ce1172_H1 (HIV-1)
[10] = biological target: Env of HIV-1 strain X2131_C1_B5 (HIV-1)
[11] = biological target: HIV-1 Env of strain 1012_11_TC21_3257 (HIV-1)
[12] = biological target: Env of HIV-1 strain BF1266.431a (HIV-1)
[13] = biological target: Env of HIV-1 strain 620345.c01 (HIV-1)
[14] = biological target: Env of HIV-1 strain C3347.c11 (HIV-1)
[15] = biological target: HIV-1 Env of strain 1054_07_TC4_1499 (HIV-1)
[16] = biological target: Env of HIV-1 strain C1080.c03 (HIV-1)
[17] = biological target: HIV-1 Env of strain Du156.12 (HIV-1)
[18] = biological target: Env of HIV-1 strain 211-9 (HIV-1)
[19] = biological target: Env of HIV-1 strain Ce1086_B2 (HIV-1)
[20] = biological target: Env of HIV-1 strain 246F C1G (HIV-1)
[21] = biological target: HIV-1 Env of strain X2131_C1_B5 (HIV-1)
[22] = biological target: HIV-1 Env of strain 6540.v4.c1 (HIV-1)
[23] = biological target: Env of HIV-1 strain 191084 B7-19 (HIV-1)
[24] = biological target: HIV-1 Env of strain HIV-16845-2.22 (HIV-1)
[25] = biological target: HIV-1 Env of strain T251-18 (HIV-1)
[26] = biological target: HIV-1 Env of strain Ce2010_F5 (HIV-1)
[27] = biological target: HIV-1 Env of strain 6041.v3.c23 (HIV-1)
[28] = biological target: Env of HIV-1 strain 235-47 (HIV-1)
[29] = biological target: HIV-1 Env of strain BJOX028000.10.3 (HIV-1)
[30] = biological target: Env of HIV-1 strain 231966.c02 (HIV-1)
[31] = biological target: Env of HIV-1 strain 6535.3 (HIV-1)
[32] = biological target: HIV-1 Env of strain 3365.v2.c2 (HIV-1)
[33] = biological target: HIV-1 Env of strain T255-34 (HIV-1)
[34] = biological target: HIV-1 Env of strain R1166.c01 (HIV-1)
[35] = biological target: Env of HIV-1 strain 3016.v5.c45 (HIV-1)
[36] = biological target: Env of HIV-1 strain T255-34 (HIV-1)
[37] = biological target: HIV-1 Env of strain 246F C1G (HIV-1)
[38] = biological target: HIV-1 Env of strain ZM249M.PL1 (HIV-1)
[39] = biological target: HIV-1 Env of strain 3103.v3.c10 (HIV-1)
[40] = biological target: HIV-1 Env of strain 6952.v1.c20 (HIV-1)
[41] = biological target: Env of HIV-1 strain CNE30 (HIV-1)
[42] = biological target: Env of HIV-1 strain ZM109F.PB4 (HIV-1)
[43] = biological target: Env of HIV-1 strain Du172.17 (HIV-1)
[44] = biological target: HIV-1 Env of strain 249M B10 (HIV-1)
[45] = biological target: Env of HIV-1 strain BJOX015000.11.5 (HIV-1)
[46] = biological target: HIV-1 Env of strain BJOX009000.02.4 (HIV-1)
[47] = biological target: HIV-1 Env of strain X1254_c3 (HIV-1)
[48] = biological target: Env of HIV-1 strain CAAN5342.A2 (HIV-1)
[49] = biological target: Env of HIV-1 strain 3301.v1.c24 (HIV-1)
[50] = biological target: Env of HIV-1 strain AC10.0.29 (HIV-1)
[51] = biological target: Env of HIV-1 strain Q461.e2 (HIV-1)

Sequence of NIH45-46 (antibody) (VH): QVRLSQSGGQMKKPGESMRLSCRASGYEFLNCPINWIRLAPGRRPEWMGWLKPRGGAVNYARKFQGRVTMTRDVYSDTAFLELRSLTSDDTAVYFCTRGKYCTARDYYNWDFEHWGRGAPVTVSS
Sequence of NIH45-46 (antibody) (V domain): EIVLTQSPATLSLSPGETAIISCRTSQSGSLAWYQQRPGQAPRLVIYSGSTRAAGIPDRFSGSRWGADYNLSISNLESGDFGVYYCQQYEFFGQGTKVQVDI

NIH45-46 (antibody) showed an IC80 [1] of 0.936 µg/mL, an IC80 [2] of 0.11 µg/mL and an IC50, pseudovirus neutralization [3] of 0.01 µg/mL. The IC50, pseudovirus neutralization [4] was 0.009 µg/mL, the IC50, pseudovirus neutralization [5] was 0.043 µg/mL and the IC80 [6] was 0.033 µg/mL. For the same substance, the IC50, pseudovirus neutralization [7] was 0.309 µg/mL, the IC80 [8] was 0.91 µg/mL and the IC80 [9] was over 50 µg/mL. It also gave an IC80 [10] of 0.88 µg/mL, an IC50, pseudovirus neutralization [11] of 0.01 µg/mL and an IC80 [12] of 0.03 µg/mL. For the same substance, the IC80 [13] was over 50 µg/mL, the IC80 [14] was 0.094 µg/mL and the IC50, pseudovirus neutralization [15] was 0.113 µg/mL. The IC80 [16] was 11.6 µg/mL, the IC50, pseudovirus neutralization [17] was 0.02 µg/mL and the IC80 [18] was over 50 µg/mL. It also gave an IC80 [19] of 0.28 µg/mL, an IC80 [20] of over 50 µg/mL and an IC50, pseudovirus neutralization [21] of 0.23 µg/mL. The IC50, pseudovirus neutralization [22] was over 50 µg/mL, the IC80 [23] was 0.07 µg/mL and the IC50, pseudovirus neutralization [24] was 5 µg/mL. The IC50, pseudovirus neutralization [25] was 1.35 µg/mL, the IC50, pseudovirus neutralization [26] was 0.101 µg/mL and the IC50, pseudovirus neutralization [27] was 0.006 µg/mL. It also gave an IC80 [28] of 1.49 µg/mL, an IC50, pseudovirus neutralization [29] of 0.07 µg/mL and an IC80 [30] of 9.64 µg/mL. It also gave an IC80 [31] of 0.54 µg/mL, an IC50, pseudovirus neutralization [32] of 0.029 µg/mL and an IC50, pseudovirus neutralization [33] of 0.71 µg/mL. For the same substance, the IC50, pseudovirus neutralization [34] was 0.31 µg/mL, the IC80 [35] was over 50 µg/mL and the IC80 [36] was 3.44 µg/mL. It also gave an IC50, pseudovirus neutralization [37] of over 50 µg/mL, an IC50, pseudovirus neutralization [38] of 0.017 µg/mL and an IC50, pseudovirus neutralization [39] of 1.77 µg/mL. It also gave an IC50, pseudovirus neutralization [40] of 0.02 µg/mL, an IC80 [41] of 1.07 µg/mL and an IC80 [42] of 0.437 µg/mL. The IC80 [43] was over 50 µg/mL, the IC50, pseudovirus neutralization [44] was 0.04 µg/mL and the IC80 [45] was 0.38 µg/mL. It also gave an IC50, pseudovirus neutralization [46] of 0.26 µg/mL, an IC50, pseudovirus neutralization [47] of 0.032 µg/mL and an IC80 [48] of 0.4 µg/mL. It also gave an IC80 [49] of 0.033 µg/mL, an IC80 [50] of 1.93 µg/mL and an IC80 [51] of 0.291 µg/mL.
